Test results from PMC4021333.

Substrate: NCC(=O)N[C@@H](Cc1ccccc1)C(=O)Nc1ccc([N+](=O)[O-])cc1
Experiment: purified protein
Conditions: wild type; conditions of the Km measurement not told

B1: DAP BII (Pseudoxanthomonas mexicana) (protein)
chain: GEGMWVPQQLPEIAGPLKKAGLKLSPQQISDLTGDPMGAVVALGGCTASFVSPNGLVVTNHHCAYGAIQLNSTAENNLIKNGFNAPTTADEVSAGPNARVFVLDEITDVTKDAKAAIAAAGDDALARTKALEAFEKKLIADCEAEAGFRCRLYSFSGGNTYRLFKNLEIKDVRLAYAPPGSVGKFGGDIDNWMWPRHTGDFAFYRAYVGKDGKPAAFSKDNVPYQPKHWLKFADQPLGAGDFVMVAGYPGSTNRYALAAEFDNTAQWTYPTIARHYKNQIAMVEAAGKQNADIQVKYAATMAGWNNTSKNYDGQLEGFKRIDAAGQKLREEAAVLGWLKGQGAKGQPALDAHAKLLDLLEQSKATRDRDLTLALFNNTAMLGSATQLYRLSIEREKPNAERESGYQERDLPAIEGGLKQLERRYVAAMDRQLQEYWLNEYIKLPADQRVAAVDAWLGGNDAAAVKRALDRLAGTKLGSTEERLKWFAADRKAFEASNDPAIQYAVAVMPTLLKLEQERKTRAGENLAARPVYLQALADYKKSQGEFVYPDANLSLRITFGNVMGYAPKDGMEYTPFTTLEGVVAKETGQDPFDSPKALLDAVAAKRYGGLEDKRIGSVPVNYLSDLDITGGNSGSPVLDAHGKLVGLAFDGNWESVSSNWVFDPKMTRMIAVDGRYLRWIMQEVYPAPQLLKEMNVGK
  Km: 1.4 mM
